From the supplement of paper PMC10567573 come the findings set out here.

B1: PRIM1 (parent)
chain: CCSSADICPKCWTLMTMAIRIIDR
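Also: lentivirally expressed fusions sorted by FACS into six bins by GFP to DsRed ratio, PSI derived from sequencing read proportions per bin multiplied by bin number.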

The variants in this data set derive from B1. The data set can be described thus: protein stability index of a GFP-peptide fusion (GPS, HEK-293T) (PSI 1-6); higher = more stable. To be noted: c terminus: a fixed tail appended.
CCSSADICRKCWTLMTMAIRIIDR [P9R]: the protein stability index is 1.73.
Turning to CCSSADICYKCWTLMTMAIRIIDR [P9Y], the protein stability index was 1.55.
With CCSSADICHKCWTLMTMAIRIIDR [P9H], the protein stability index amounted to 2.29.
Consider CCSSADKCPKCWTLMTMAIRIIDR [I7K], for which the protein stability index worked out at 2.65.
Take CCSSADYCPKCWTLMTMAIRIIDR [I7Y]: the protein stability index stood at 1.57.
On to CCSSADCCPKCWTLMTMAIRIIDR [I7C], for which the protein stability index amounted to 1.94.
As for CCSSADPCPKCWTLMTMAIRIIDR [I7P], the figure is 2.07.
As for CCSSADDCPKCWTLMTMAIRIIDR [I7D], the figure is 2.35; as for CCSSADLCPKCWTLMTMAIRIIDR [I7L], 2.56.
CCSSADTCPKCWTLMTMAIRIIDR [I7T]: the protein stability index was 1.77.
Then CCSSADRCPKCWTLMTMAIRIIDR [I7R], with 1.85; and CCSSADVCPKCWTLMTMAIRIIDR [I7V], with 1.88.
Turning to CCSSADQCPKCWTLMTMAIRIIDR [I7Q], the protein stability index was determined as 2.05.
Turning to CCSSADACPKCWTLMTMAIRIIDR [I7A], the protein stability index stood at 1.87.
Take CCSSADMCPKCWTLMTMAIRIIDR [I7M]: the protein stability index worked out at 1.52.
CCSSADHCPKCWTLMTMAIRIIDR [I7H]: the protein stability index was determined as 1.91.
Regarding CCSSADNCPKCWTLMTMAIRIIDR [I7N], the protein stability index came out at 1.69.
CCSSADSCPKCWTLMTMAIRIIDR [I7S]: the protein stability index amounted to 1.72.
Then CCSSADFCPKCWTLMTMAIRIIDR [I7F], with 2.63; and CCSSADWCPKCWTLMTMAIRIIDR [I7W], with 2.16.
Turning to CCSSADGCPKCWTLMTMAIRIIDR [I7G], the protein stability index is 1.98.
Consider CCSSADECPKCWTLMTMAIRIIDR [I7E], for which the protein stability index was 2.21.
Turning to CCSSANICPKCWTLMTMAIRIIDR [D6N], the protein stability index is 1.86.
Consider CCSSARICPKCWTLMTMAIRIIDR [D6R], for which the protein stability index turned out to be 1.51.
For the variant CCSSAPICPKCWTLMTMAIRIIDR [D6P], the protein stability index is 2.13.
Take CCSSACICPKCWTLMTMAIRIIDR [D6C]: the protein stability index came to 1.62.
For the variant CCSSAWICPKCWTLMTMAIRIIDR [D6W], the protein stability index was determined as 2.91.
As for CCSSASICPKCWTLMTMAIRIIDR [D6S], the protein stability index is 1.86.
For CCSSAHICPKCWTLMTMAIRIIDR [D6H], the protein stability index was 2.49.
Take CCSSAEICPKCWTLMTMAIRIIDR [D6E]: the protein stability index was 2.22.
CCSSAYICPKCWTLMTMAIRIIDR [D6Y]: the protein stability index amounted to 1.58.
With CCSSAKICPKCWTLMTMAIRIIDR [D6K], the protein stability index was determined as 2.14.
Consider CCSSAGICPKCWTLMTMAIRIIDR [D6G], for which the protein stability index was 1.47.
CCSSAAICPKCWTLMTMAIRIIDR [D6A]: the protein stability index was 1.7.
For CCSSAMICPKCWTLMTMAIRIIDR [D6M], the protein stability index turned out to be 2.15.
With CCSSAVICPKCWTLMTMAIRIIDR [D6V], the protein stability index came to 1.47.
As for CCSSATICPKCWTLMTMAIRIIDR [D6T], the protein stability index amounted to 2.29.
Then CCSSAIICPKCWTLMTMAIRIIDR [D6I], with 1.91.
In the case of CCSSAQICPKCWTLMTMAIRIIDR [D6Q], the protein stability index is 2.44.
As for CCSSAFICPKCWTLMTMAIRIIDR [D6F], the protein stability index was 2.11.
Then CCSSADICPKCWTFMTMAIRIIDR [L14F], with 2.06; and CCSSADICPKCWTMMTMAIRIIDR [L14M], with 1.55; and CCSSADICPKCWTRMTMAIRIIDR [L14R], with 2.18.
Then CCSSADICPKCWTWMTMAIRIIDR [L14W], with 2.62.
Regarding CCSSADICPKCWTSMTMAIRIIDR [L14S], the protein stability index stood at 2.39.
As to CCSSADICPKCWTVMTMAIRIIDR [L14V], the protein stability index was 1.8.
As for CCSSADICPKCWTGMTMAIRIIDR [L14G], the figure is 1.27; as for CCSSADICPKCWTNMTMAIRIIDR [L14N], 1.82; as for CCSSADICPKCWTHMTMAIRIIDR [L14H], 1.6.
For the variant CCSSADICPKCWTEMTMAIRIIDR [L14E], the protein stability index came to 2.06.
For CCSSADICPKCWTIMTMAIRIIDR [L14I], the protein stability index turned out to be 1.75.
Turning to CCSSADICPKCWTPMTMAIRIIDR [L14P], the protein stability index was 2.27.
For the variant CCSSADICPKCWTYMTMAIRIIDR [L14Y], the protein stability index is 1.71.
With CCSSADICPKCWTDMTMAIRIIDR [L14D], the protein stability index amounted to 1.95.
Then CCSSADICPKCWTQMTMAIRIIDR [L14Q], with 1.9; and CCSSADICPKCWTKMTMAIRIIDR [L14K], with 2; and CCSSADICPKCWTCMTMAIRIIDR [L14C], with 1.8.
Then CCSSADICPKCWTAMTMAIRIIDR [L14A], with 2.21; and CCSSADICPKCWTTMTMAIRIIDR [L14T], with 2.89; and CCSSADICPKCWSLMTMAIRIIDR [T13S], with 1.96.
Consider CCSSADICPKCWLLMTMAIRIIDR [T13L], for which the protein stability index came to 1.49.
Turning to CCSSADICPKCWWLMTMAIRIIDR [T13W], the protein stability index came out at 2.31.
Take CCSSADICPKCWNLMTMAIRIIDR [T13N]: the protein stability index is 1.38.
As for CCSSADICPKCWGLMTMAIRIIDR [T13G], the figure is 1.91; as for CCSSADICPKCWFLMTMAIRIIDR [T13F], 1.53.
As for CCSSADICPKCWMLMTMAIRIIDR [T13M], the protein stability index was found to be 1.59.
For CCSSADICPKCWDLMTMAIRIIDR [T13D], the protein stability index amounted to 1.61.
On to CCSSADICPKCWILMTMAIRIIDR [T13I], for which the protein stability index was 2.13.
For CCSSADICPKCWQLMTMAIRIIDR [T13Q], the protein stability index stood at 2.18.
As for CCSSADICPKCWALMTMAIRIIDR [T13A], the figure is 2.63; as for CCSSADICPKCWCLMTMAIRIIDR [T13C], 2.04.
With CCSSADICPKCWKLMTMAIRIIDR [T13K], the protein stability index is 2.46.
Then CCSSADICPKCWYLMTMAIRIIDR [T13Y], with 2.19; and CCSSADICPKCWPLMTMAIRIIDR [T13P], with 1.3; and CCSSADICPKCWELMTMAIRIIDR [T13E], with 1.88.
CCSSADICPKCWTLNTMAIRIIDR [M15N]: the protein stability index was found to be 2.29.
Take CCSSADICPKCWTLKTMAIRIIDR [M15K]: the protein stability index amounted to 2.45.
For CCSSADICPKCWTLSTMAIRIIDR [M15S], the protein stability index was 1.95.
Consider CCSSADICPKCWTLATMAIRIIDR [M15A], for which the protein stability index worked out at 2.96.
As for CCSSADICPKCWTLTTMAIRIIDR [M15T], the protein stability index was 2.34.
On to CCSSADICPKCWTLQTMAIRIIDR [M15Q], for which the protein stability index is 1.95.
In the case of CCSSADICPKCWTLWTMAIRIIDR [M15W], the protein stability index was 1.98.
As for CCSSADICPKCWTLVTMAIRIIDR [M15V], the figure is 2.96.
As for CCSSADICPKCWTLGTMAIRIIDR [M15G], the protein stability index turned out to be 1.69.
Turning to CCSSADICPKCWTLPTMAIRIIDR [M15P], the protein stability index came to 2.13.
Then CCSSADICPKCWTLFTMAIRIIDR [M15F], with 1.47; and CCSSADICPKCWTLETMAIRIIDR [M15E], with 2.01.
Turning to CCSSADICPKCWTLDTMAIRIIDR [M15D], the protein stability index stood at 2.03.
In the case of CCSSADICPKCWTLHTMAIRIIDR [M15H], the protein stability index worked out at 2.25.
With CCSSADICPKCWTLITMAIRIIDR [M15I], the protein stability index is 2.87.
For the variant CCSSADICPKCWTLLTMAIRIIDR [M15L], the protein stability index was determined as 1.59.
Then CCSSADICPKCWTLYTMAIRIIDR [M15Y], with 1.63; and CCSSADICPKCWTLCTMAIRIIDR [M15C], with 1.77.
With CCSSADICPKCWTLRTMAIRIIDR [M15R], the protein stability index was found to be 2.35.
